{"source": "paper PMC13049513", "about": "“Assembly of a homohexameric minichromosome maintenance complex is dependent on ATP and DNA” (The Journal of Biological Chemistry, 2025)", "molecules": {"B1": {"name": "MacMCM, minichromosome maintenance protein from Mancarchaeum acidiphilum D59N; E61K; K476R; E537D; N484D; S532K (protein)", "chain": "MAEQQTSSLKLLFDEFLESYYSDEIKDIIIKFPNKRSLPVNISDLEEFDPDTATNLIANPKIIIDAANESLMGKLAGLNFDTYIPHVRFYNQSINTPMVLNVGSAYINKFVSIDALVVKRSDIRPKIRDAVFVCTFCNAKVKANLEKEEIPKVCPECKKRTLKIVPEESSFFNSQKIAVQDPLERLSGSIPTWQLEAWLDDDLVNMAIPGDRIEISGVLKIRPRKDSRGKVDPSIYSMYLNVTSLETKQKEFADIDISEDEERQIKELSKDPEIFNKVTQSVAPSIYGYNEIKQAVALQLFGGTPGKKLVDGGQIRSDMHILLIGDPGSAKTRILQSVSRLVPKGIYVSGKSVTGGGLTAVAERDDFSEGGWTLKAGAMVLGNGGIVAIDEFDKISEEDTAALHEALESQTISVAKAGIIATFNAKASVLAAANPKFGRFDPHKYPAEQFDISPTLLSRFDLIFPIRDIMDTELDRSIANYILDQHEAAGAAIADVESSVAAEEPPIEHSLLKKYIAYAKRYVMPRLSEEAKNRIKDYYVDLRRAGSMKGATPITPRQIEGLIRMAEASAKSQLRDVVSVKDANLAISLSEYMLKTLAVDTEGRTDIDTILTGMPREKVDKINVILDAVKKLEEMDGSAKIDRIFEEVAKQGVDKNTANKYINELEQSGDIFSPKMGIIKVVRHEEE"}}, "key": {"[1]": {"molecular_target": "SsoNPfuCMCM, chimeric MCM of the N-terminal domain of SsoMCM fused with the ATPase domain of PfuMCM (Sulfolobus solfataricus | not stated) (UniProt Q9UXG1)", "assay": "SEC-MALS; SEC-MALLS, Superose S6 Increase 10/300 GL, 200 mM KCl, 50 mM Tris-Cl pH 8.0, 5% glycerol, 0.5 mM DTT; 100 ul protein at 1 to 10 mg/ml; no ligands"}, "[2]": {"molecular_target": "MacMCM triple site minus-SB mutant (D311K, D366K, R543E)", "assay": "analytical size-exclusion chromatography (SEC), self-association", "details": "Protein samples (10 μM); Superdex S200 Increase 10/300 GL; UV absorbance at 280 nm; parent: est. 13.1; read off a plot"}, "MacMCM": {"molecular_target": "T1, MacMCM (Candidatus Mancarchaeum acidiphilum, UniProt A0A218NN99, E391Q)", "T1 construct": "gene Mia14_0611; full length, codon-optimised gene, N-terminal His10 tag cut with TEV protease, from E. coli BL21(DE3) pLysS; monomer without ligands, homohexamer with ATP and DNA", "T1 sequence (A0A218NN99 entry or part of it E391Q)": "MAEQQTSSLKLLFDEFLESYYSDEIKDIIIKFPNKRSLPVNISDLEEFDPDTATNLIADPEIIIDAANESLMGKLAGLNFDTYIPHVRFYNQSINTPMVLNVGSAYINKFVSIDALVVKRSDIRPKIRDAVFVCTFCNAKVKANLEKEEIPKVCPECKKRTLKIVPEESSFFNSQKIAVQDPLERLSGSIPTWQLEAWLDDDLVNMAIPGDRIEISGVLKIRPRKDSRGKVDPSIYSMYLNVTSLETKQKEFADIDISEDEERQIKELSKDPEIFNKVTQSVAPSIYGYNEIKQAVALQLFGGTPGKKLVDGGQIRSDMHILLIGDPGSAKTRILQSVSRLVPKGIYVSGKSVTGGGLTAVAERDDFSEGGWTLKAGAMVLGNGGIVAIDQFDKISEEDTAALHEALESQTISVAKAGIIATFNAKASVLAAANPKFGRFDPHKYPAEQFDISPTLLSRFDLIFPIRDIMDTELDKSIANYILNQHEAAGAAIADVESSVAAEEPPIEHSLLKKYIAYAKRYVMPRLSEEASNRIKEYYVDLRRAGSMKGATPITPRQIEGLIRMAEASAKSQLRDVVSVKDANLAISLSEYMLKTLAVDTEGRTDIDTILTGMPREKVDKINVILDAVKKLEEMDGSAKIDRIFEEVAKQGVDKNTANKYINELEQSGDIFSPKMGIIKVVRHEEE", "assay": "analytical SEC: ATP-dependent hexamer formation with ssDNA", "assay_type": "binding", "details": "1 mM ATP, 10 mM MgCl2, FAM-polyT50 ssDNA, pH 8.0; Walker B mutant, no ATP hydrolysis"}, "MacMCM^ΔWHD [3]": {"molecular_target": "T2, MacMCM^ΔWHD (Candidatus Mancarchaeum acidiphilum, UniProt A0A218NN99, E391Q, form not given)", "T2 construct": "gene Mia14_0611", "T2 sequence (A0A218NN99 entry or part of it E391Q, form open)": "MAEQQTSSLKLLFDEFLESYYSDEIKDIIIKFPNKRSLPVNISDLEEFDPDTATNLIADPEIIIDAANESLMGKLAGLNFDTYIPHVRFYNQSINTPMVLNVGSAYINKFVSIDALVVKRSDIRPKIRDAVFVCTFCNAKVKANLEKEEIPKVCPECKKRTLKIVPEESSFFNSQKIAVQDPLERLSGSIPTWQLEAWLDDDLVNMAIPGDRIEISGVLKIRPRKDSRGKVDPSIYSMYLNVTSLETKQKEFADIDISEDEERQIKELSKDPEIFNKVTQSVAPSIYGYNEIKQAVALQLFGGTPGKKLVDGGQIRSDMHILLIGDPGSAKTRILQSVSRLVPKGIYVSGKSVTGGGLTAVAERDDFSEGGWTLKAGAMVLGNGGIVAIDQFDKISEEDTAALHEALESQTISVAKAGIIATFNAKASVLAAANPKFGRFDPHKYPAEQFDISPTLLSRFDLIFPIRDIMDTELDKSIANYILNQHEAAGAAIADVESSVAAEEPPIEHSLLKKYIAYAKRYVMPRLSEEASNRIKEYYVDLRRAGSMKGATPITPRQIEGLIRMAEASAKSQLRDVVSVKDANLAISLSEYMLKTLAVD", "assay": "analytical SEC: ATP-dependent hexamer formation with ssDNA", "assay_type": "binding", "details": "1 mM ATP, 10 mM MgCl2, FAM-polyT50 ssDNA, pH 8.0; Walker B mutant, no ATP hydrolysis"}, "[4]": {"molecular_target": "MacMCM D366K (minus-SB mutant)", "assay": "analytical size-exclusion chromatography (SEC), self-association", "details": "Protein samples (10 μM); Superdex S200 Increase 10/300 GL; UV absorbance at 280 nm; parent: est. 13.1; read off a plot"}, "[5]": {"molecular_target": "MacMCM DNEK (plus-SB mutant D59N–E61K)", "assay": "analytical size-exclusion chromatography (SEC), self-association", "details": "Protein samples (10 μM); Superdex S200 Increase 10/300 GL; UV absorbance at 280 nm; parent: est. 13.1; read off a plot"}, "[6]": {"test_system": "MacMCM E391Q (Mancarchaeum acidophilum)", "assay": "fluorescence anisotropy", "details": "Anisotropy: 250 mM potassium glutamate, 20 mM Tris pH 8.0, 1 nM forked DNA, with 4 mM nucleotide and 10 mM MgCl2 where present; temperature not stated (EMSA …)"}, "[7]": {"test_system": "MacMCMΔWHD E391Q (Mancarchaeum acidophilum), PDB:8Q67_1", "assay": "fluorescence anisotropy", "details": "Anisotropy: 250 mM potassium glutamate, 20 mM Tris pH 8.0, 1 nM forked DNA, with 4 mM nucleotide and 10 mM MgCl2 where present; temperature not stated (EMSA …)"}, "[8]": {"molecular_target": "MacMCM D311K (minus-SB mutant)", "assay": "analytical size-exclusion chromatography (SEC), self-association", "details": "Protein samples (10 μM); Superdex S200 Increase 10/300 GL; UV absorbance at 280 nm; parent: est. 13.1; read off a plot"}, "[9]": {"molecular_target": "MacMCM R543E (minus-SB mutant)", "assay": "analytical size-exclusion chromatography (SEC), self-association", "details": "Protein samples (10 μM); Superdex S200 Increase 10/300 GL; UV absorbance at 280 nm; parent: est. 13.1; read off a plot"}, "[10]": {"molecular_target": "MacMCM^E391Q, Walker B mutant of MacMCM (Mancarchaeum acidiphilum)", "assay": "SEC; analytical SEC, Superose 6 Increase 10/300 GL, 200 mM NaCl, 20 mM Tris pH 8.0, 5% glycerol; protein 10 uM with equimolar fluorescein-polyT50 ssDNA; 1 mM ATP and 10 mM MgCl2 in the buffer"}, "[11]": {"molecular_target": "MacMCM, minichromosome maintenance protein from Mancarchaeum acidiphilum (Mancarchaeum acidiphilum)", "assay": "SEC; analytical SEC, Superose 6 Increase 10/300 GL, 200 mM NaCl, 20 mM Tris pH 8.0, 5% glycerol; protein 10 uM with equimolar fluorescein-polyT50 ssDNA; 1 mM ATP and 10 mM MgCl2 in the buffer"}, "[12]": {"molecular_target": "MacMCM NDSK (plus-SB mutant N484D–S532K)", "assay": "analytical size-exclusion chromatography (SEC), self-association", "details": "Protein samples (10 μM); Superdex S200 Increase 10/300 GL; UV absorbance at 280 nm; parent: est. 13.1; read off a plot"}, "MacMCM^ΔWHD [13]": {"molecular_target": "T2, MacMCM^ΔWHD", "assay": "X-ray crystal structure, […] Å", "assay_type": "binding", "details": "crystals grown with 10 mM ATP and 10 mM MgCl2; nucleotide modelled as ADP; ATPase site at subunit interface, five of six sites"}, "[14]": {"molecular_target": "MacMCM^ΔWHD.E391Q, MacMCM lacking the C-terminal winged-helix domain with the Walker B mutation E391Q (Mancarchaeum acidiphilum)", "assay": "crystal structure; MacMCM^ΔWHD.E391Q crystallised with 10 mM ATP and 10 mM MgCl2, 20 °C; ADP and phosphate in the active sites; 2.59 Å"}, "[15]": {"molecular_target": "MacMCM^ΔWHD.E391Q, MacMCM lacking the C-terminal winged-helix domain with the Walker B mutation E391Q (Mancarchaeum acidiphilum)", "assay": "SEC; analytical SEC, Superose 6 Increase 10/300 GL, 200 mM NaCl, 20 mM Tris pH 8.0, 5% glycerol; protein 10 uM with equimolar fluorescein-polyT50 ssDNA; 1 mM ATP and 10 mM MgCl2 in the buffer"}, "[16]": {"molecular_target": "MacMCM KRED (plus-SB mutant K476R–E537D)", "assay": "analytical size-exclusion chromatography (SEC), self-association", "details": "Protein samples (10 μM); Superdex S200 Increase 10/300 GL; UV absorbance at 280 nm; parent: est. 13.1; read off a plot"}, "[17]": {"molecular_target": "T3, MacMCM triple-site plus-SB mutant (D59N–E61K, K476R–E537D, N484D–S532K)", "T3 chain": "B1 chain", "assay": "analytical size-exclusion chromatography (SEC), self-association", "details": "chain shown with the change; Protein samples (10 μM); Superdex S200 Increase 10/300 GL; UV absorbance at 280 nm; parent: est. 13.1; read off a plot"}}, "data": [{"molecule": "SsoNPfuCMCM, chimeric MCM of the N-terminal domain of SsoMCM fused with the ATPase domain of PfuMCM (from UniProt Q9UXG1 2-321) (enzyme)", "values": [{"measurement": "stoichiometry N", "setting": "[1]", "result": 6}]}, {"molecule": "MacMCM, minichromosome maintenance protein from Mancarchaeum acidiphilum D311K; D366K; R543E", "values": [{"measurement": "other: SEC peak retention volume", "setting": "[2]", "result": 13.3, "unit": "mL"}]}, {"molecule": "Nc1ncnc2c1ncn2[C@@H]1O[C@H](COP(=O)(O)OP(=O)(O)OP(=O)(O)O)[C@@H](O)[C@H]1O", "note": "[ATP]", "values": [{"measurement": "analytical SEC: ATP-dependent hexamer formation with ssDNA", "setting": "MacMCM", "result": "both MacMCM^E391Q and MacMCM^ΔWHD.E391Q coeluted with ssDNA at elution volumes consistent with a homohexamer"}, {"measurement": "analytical SEC: ATP-dependent hexamer formation with ssDNA", "setting": "MacMCM^ΔWHD [3]", "result": "both MacMCM^E391Q and MacMCM^ΔWHD.E391Q coeluted with ssDNA at elution volumes consistent with a homohexamer"}]}, {"molecule": "MacMCM, minichromosome maintenance protein from Mancarchaeum acidiphilum D366K", "values": [{"measurement": "other: SEC peak retention volume", "setting": "[4]", "result": 13.4, "unit": "mL"}]}, {"molecule": "MacMCM, minichromosome maintenance protein from Mancarchaeum acidiphilum D59N; E61K", "values": [{"measurement": "other: SEC peak retention volume", "setting": "[5]", "result": 12.9, "unit": "mL"}]}, {"molecule": "GGGACGCGTCGGCCTGGCACGTCGGCCGCTGCGGCCAGGCACCCGATGGCGTTTGTTTGTTTGTTTGTTTGTTT / TTTGTTTGTTTGTTTGTTTGTTTGTTTGTTTGCCGACGTGCCAGGCCGACGCGTCCC [forked DNA]", "values": [{"measurement": "Kd", "setting": "[6]", "result": 780, "unit": "nM"}, {"measurement": "Kd", "setting": "[7]", "result": 114, "unit": "nM"}]}, {"molecule": "MacMCM, minichromosome maintenance protein from Mancarchaeum acidiphilum D311K", "values": [{"measurement": "other: SEC peak retention volume", "setting": "[8]", "result": 13.4, "unit": "mL"}]}, {"molecule": "MacMCM, minichromosome maintenance protein from Mancarchaeum acidiphilum R543E", "values": [{"measurement": "other: SEC peak retention volume", "setting": "[9]", "result": 13.3, "unit": "mL"}]}, {"molecule": "MacMCM^E391Q, Walker B mutant of MacMCM (enzyme)", "values": [{"measurement": "stoichiometry N", "setting": "[10]", "result": 6}]}, {"molecule": "MacMCM, minichromosome maintenance protein from Mancarchaeum acidiphilum (enzyme)", "values": [{"measurement": "stoichiometry N", "setting": "[11]", "result": 6}]}, {"molecule": "MacMCM, minichromosome maintenance protein from Mancarchaeum acidiphilum N484D; S532K", "values": [{"measurement": "other: SEC peak retention volume", "setting": "[12]", "result": 13, "unit": "mL"}]}, {"molecule": "Nc1ncnc2c1ncn2[C@@H]1O[C@H](COP(=O)(O)OP(=O)(O)O)[C@@H](O)[C@H]1O", "note": "[ADP]", "values": [{"measurement": "X-ray crystal structure, 2.6 Å", "setting": "MacMCM^ΔWHD [13]", "result": "ADP was identified in five of the six ATPase active sites"}]}, {"molecule": "MacMCM^ΔWHD.E391Q, MacMCM lacking the C-terminal winged-helix domain with the Walker B mutation E391Q (domain or fragment)", "values": [{"measurement": "stoichiometry N", "setting": "[14]", "result": 6}, {"measurement": "stoichiometry N", "setting": "[15]", "result": 6}]}, {"molecule": "MacMCM, minichromosome maintenance protein from Mancarchaeum acidiphilum K476R; E537D", "values": [{"measurement": "other: SEC peak retention volume", "setting": "[16]", "result": 13.3, "unit": "mL"}]}, {"molecule": "B1", "values": [{"measurement": "other: SEC peak retention volume", "setting": "[17]", "result": 11.6, "unit": "mL"}]}]}
